B1: human recombinant PDGF-CC (ligand)
chain: VVDLNLLTEEVRLYSCTPRNFSVSIREELKRTDTIFWPGCLLVKRCGGNCACCLHNCNECQCVPSKVTKKYHEVLQLRPKTGVRGLHKSLTDVALEHHEECDCVCRGSTGG
modifications: disulfide-linked homodimer; limits not given, active growth factor domain after cleavage at Arg234 taken by convention
B2: human recombinant PDGF-CC (ligand, UniProt Q9NRA1 235-345, looked up)
chain: B1 chain
notes: Platelet-derived growth factor C, human; Homodimer by its name; source: bought: R&D Systems (Cat. #1687-CC-025), human recombinant
B3: human recombinant PDGF-BB (ligand, UniProt P01127 82-190, looked up)
chain: SLGSLTIAEPAMIAECKTRTEVFEISRRLIDRTNANFLVWPPCVEVQRCSGCCNNRNVQCRPTQVQLRPVQVRKIEIVRKKPIFKKATVTLEDHLACKCETVAAARPVT
notes: Platelet-derived growth factor subunit B, human; Homodimer of B chains by its name; source: bought: R&D Systems (Cat. #220-BB-050), human recombinant

What was measured:
Details in all cases: both partners purified
human recombinant PDGFRα [1] = biological target: T1, human recombinant PDGFRα (human, UniProt P16234 24-1089); experiment: SPR; BIAcore 3000, 25 °C, CM5 chip; receptor immobilised by amine coupling (~200-500 R.U.); ligand injected at 10, 20 and 40 nM, 30 uL/min, 10 min dissociation; HBS-EP pH 7.4 (10 mM HEPES, 3 mM EDTA, 150 mM NaCl, 0.005% TWEEN-20); angiopoietin-4 reference cell subtracted; global 1:1 Langmuir fit; χ2-to-Rmax > 1.0 or negative association curves taken as no true interaction
T1 construct: platelet-derived growth factor receptor alpha, human, recombinant; also called PDGFRa; source: bought: R&D Systems
T1 sequence (P16234 24-1089): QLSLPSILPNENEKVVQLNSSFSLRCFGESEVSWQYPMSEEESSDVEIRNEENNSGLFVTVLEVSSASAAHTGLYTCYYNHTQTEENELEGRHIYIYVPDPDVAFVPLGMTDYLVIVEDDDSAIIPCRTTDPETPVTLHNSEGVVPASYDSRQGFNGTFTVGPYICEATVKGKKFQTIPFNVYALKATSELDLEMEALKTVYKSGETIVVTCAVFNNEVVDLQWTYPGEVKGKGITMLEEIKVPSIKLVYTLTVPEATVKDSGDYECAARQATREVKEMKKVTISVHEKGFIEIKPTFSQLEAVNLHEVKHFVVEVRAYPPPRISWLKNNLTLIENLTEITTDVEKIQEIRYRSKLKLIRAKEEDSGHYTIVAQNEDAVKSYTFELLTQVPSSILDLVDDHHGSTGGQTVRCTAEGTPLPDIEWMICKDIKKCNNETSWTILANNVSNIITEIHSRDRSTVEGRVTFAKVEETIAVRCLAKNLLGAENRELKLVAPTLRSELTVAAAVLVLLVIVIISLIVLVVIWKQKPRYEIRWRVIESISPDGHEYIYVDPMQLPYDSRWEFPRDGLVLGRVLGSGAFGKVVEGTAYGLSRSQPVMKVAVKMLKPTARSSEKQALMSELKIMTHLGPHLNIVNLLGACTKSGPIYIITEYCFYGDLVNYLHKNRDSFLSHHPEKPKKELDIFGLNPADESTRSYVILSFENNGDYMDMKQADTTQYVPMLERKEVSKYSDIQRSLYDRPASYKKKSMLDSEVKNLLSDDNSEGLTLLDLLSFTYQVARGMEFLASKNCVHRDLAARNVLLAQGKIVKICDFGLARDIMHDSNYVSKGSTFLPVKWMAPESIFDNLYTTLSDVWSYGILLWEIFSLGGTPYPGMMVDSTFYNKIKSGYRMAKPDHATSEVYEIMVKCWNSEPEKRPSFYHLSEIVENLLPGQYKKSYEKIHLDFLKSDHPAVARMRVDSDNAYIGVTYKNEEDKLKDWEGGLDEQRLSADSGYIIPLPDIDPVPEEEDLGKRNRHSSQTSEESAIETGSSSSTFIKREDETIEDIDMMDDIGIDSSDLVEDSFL

human recombinant PDGFRβ = biological target: T2, human recombinant PDGFRβ (human, UniProt P09619 33-1106); experiment: as above
T2 construct: platelet-derived growth factor receptor beta, human, recombinant; source: bought: R&D Systems
T2 sequence (P09619 33-1106): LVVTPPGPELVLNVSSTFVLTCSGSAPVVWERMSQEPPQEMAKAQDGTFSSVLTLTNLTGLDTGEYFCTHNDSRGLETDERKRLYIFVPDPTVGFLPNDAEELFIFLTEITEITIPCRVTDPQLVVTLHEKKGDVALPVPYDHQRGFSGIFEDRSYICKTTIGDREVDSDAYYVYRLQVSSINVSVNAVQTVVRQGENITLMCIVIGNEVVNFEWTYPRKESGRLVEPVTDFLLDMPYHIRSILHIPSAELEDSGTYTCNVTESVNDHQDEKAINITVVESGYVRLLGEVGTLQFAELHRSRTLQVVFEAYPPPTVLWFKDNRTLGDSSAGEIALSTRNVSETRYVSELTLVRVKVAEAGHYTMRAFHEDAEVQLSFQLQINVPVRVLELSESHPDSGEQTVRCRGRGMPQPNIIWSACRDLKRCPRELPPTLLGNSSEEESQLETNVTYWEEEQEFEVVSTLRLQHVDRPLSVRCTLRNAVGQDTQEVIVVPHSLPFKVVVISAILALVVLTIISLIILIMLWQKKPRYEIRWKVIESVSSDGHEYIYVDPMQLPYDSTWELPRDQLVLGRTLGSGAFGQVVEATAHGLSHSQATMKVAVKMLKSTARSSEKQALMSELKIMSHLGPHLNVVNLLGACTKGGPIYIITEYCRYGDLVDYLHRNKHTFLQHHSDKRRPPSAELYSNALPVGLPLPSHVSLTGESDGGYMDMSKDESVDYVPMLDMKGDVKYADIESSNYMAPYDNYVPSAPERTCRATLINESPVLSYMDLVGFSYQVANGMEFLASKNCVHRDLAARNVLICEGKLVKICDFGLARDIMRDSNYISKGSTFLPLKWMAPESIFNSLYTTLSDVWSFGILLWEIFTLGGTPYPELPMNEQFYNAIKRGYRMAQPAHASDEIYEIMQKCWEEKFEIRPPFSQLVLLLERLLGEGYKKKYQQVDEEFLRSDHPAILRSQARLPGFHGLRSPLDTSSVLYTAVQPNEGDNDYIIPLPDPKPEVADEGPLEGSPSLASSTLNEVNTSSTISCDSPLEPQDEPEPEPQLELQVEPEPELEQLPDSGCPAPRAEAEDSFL

human recombinant PDGFRα [2] = biological target: T3, human recombinant PDGFRα (human, UniProt P16234 24-528); experiment: SPR; BIAcore 3000, 25 °C, CM5 chip; receptor immobilised by amine coupling (~200-500 R.U.); ligand injected at 40, 20 and 10 nM in HBS-EP pH 7.4 (10 mM HEPES, 3 mM EDTA, 150 mM NaCl, 0.005% TWEEN-20); angiopoietin-4 reference cell subtracted; global 1:1 Langmuir fit; χ^2-to-Rmax < 1.0 taken as a true interaction
T3 construct: Platelet-derived growth factor receptor alpha, human; also called PDGFRa; source: bought: R&D Systems (Cat #322-PR-050/CF), human recombinant
T3 sequence (P16234 24-528): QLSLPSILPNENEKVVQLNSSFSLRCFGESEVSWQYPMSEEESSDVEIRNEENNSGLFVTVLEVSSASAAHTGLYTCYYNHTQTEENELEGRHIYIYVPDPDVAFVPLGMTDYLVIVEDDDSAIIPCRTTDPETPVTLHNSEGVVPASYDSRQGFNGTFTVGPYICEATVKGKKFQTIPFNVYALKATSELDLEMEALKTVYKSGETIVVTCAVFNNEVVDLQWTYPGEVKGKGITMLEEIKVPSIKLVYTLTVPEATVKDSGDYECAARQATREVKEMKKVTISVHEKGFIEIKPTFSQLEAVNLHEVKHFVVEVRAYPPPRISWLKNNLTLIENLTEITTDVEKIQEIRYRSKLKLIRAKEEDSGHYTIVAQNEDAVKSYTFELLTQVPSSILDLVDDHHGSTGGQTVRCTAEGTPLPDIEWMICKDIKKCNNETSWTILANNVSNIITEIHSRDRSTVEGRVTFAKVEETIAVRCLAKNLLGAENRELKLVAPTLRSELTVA

human recombinant VEGFR2 = biological target: T4, human recombinant VEGFR2 (human, UniProt P35968 20-764); experiment: as above
T4 construct: Vascular endothelial growth factor receptor 2 (KDR), human; source: bought: R&D Systems (Cat. #357-KD-050/CF), human recombinant
T4 sequence (P35968 20-764): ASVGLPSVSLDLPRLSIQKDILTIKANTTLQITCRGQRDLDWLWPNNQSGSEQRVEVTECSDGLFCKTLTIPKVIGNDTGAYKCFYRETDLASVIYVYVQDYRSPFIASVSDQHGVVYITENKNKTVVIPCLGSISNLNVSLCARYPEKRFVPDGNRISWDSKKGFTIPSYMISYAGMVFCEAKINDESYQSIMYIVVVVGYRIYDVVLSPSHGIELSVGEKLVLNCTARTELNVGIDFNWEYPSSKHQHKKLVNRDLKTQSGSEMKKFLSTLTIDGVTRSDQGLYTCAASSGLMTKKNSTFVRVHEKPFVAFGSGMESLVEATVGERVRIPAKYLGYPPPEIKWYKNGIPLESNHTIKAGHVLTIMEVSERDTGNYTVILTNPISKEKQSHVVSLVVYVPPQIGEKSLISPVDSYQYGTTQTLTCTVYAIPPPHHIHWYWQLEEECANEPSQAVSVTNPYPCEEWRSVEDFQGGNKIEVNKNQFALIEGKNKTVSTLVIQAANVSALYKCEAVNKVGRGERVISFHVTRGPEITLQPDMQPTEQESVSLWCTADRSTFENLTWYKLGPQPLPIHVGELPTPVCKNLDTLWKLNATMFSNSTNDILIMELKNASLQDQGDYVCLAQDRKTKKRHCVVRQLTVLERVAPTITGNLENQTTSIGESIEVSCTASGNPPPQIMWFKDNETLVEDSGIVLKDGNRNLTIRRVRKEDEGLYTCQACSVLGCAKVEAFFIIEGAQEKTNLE

| Binder | koff (human recombinant PDGFRα [1]) [s⁻¹] | kon (human recombinant PDGFRα [1]) [M⁻¹ s⁻¹] | koff (human recombinant PDGFRβ) [s⁻¹] | kon (human recombinant PDGFRβ) [M⁻¹ s⁻¹] | Kd (human recombinant PDGFRα [2]) [nM] | Kd (human recombinant VEGFR2) [nM] |
| --- | --- | --- | --- | --- | --- | --- |
| B1 | 0.0002 | 5000 | 0.0014 | 740000 |  |  |
| B2 |  |  |  |  | 3.4 |  |
| B3 |  |  |  |  | 420 | 37 |
